Source: the supplement of paper PMC7125110
± gives the standard error. This sample holds only a part of the variants without activity.

B1: glmS ribozyme (parent)
chain: AUAAAAGCGCCAGAACUACAGAAAUGUAGUUGACGAGGAGGAGGUUUAUCGAAUUUUCGGCGGAUGCCUCCAAA

Variants of: B1
Assay: self-cleavage kobs at 10000 uM GlcN6P; higher = faster cleavage; RNA array
Conditions: with glucosamine-6-phosphate
In short: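 In situ transcription by E. coli RNA polymerase produced barcoded ribozyme variants on sequenced MiSeq chips, and a hybridised Cy3 probe tracked them at 37 °C. Glucosamine-6-phosphate was flowed in at 40 μM to 10 mM in HEPES/KCl/Mg(OAc)2 buffer. kcat and KM were taken from weighted Michaelis–Menten fits of kobs values from exponential decay fits.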

Point of comparison: AUAAAAGCGCCAGAACUACAGAAAUGUAGUUGACGAGGAGGAGGUUAAUCGAUUUUUAGGCGGAUGCCUCCAAA, “self-cleavage kobs at 10000 uM GlcN6P” value 0.000151 ± 3e-05 s⁻¹. Against it:
- AUAAAAGCGCCAGAACUACAGAAAUGUAGUUGACGAGGAGGAAGUUUAUCGAAUUUUCGGCGGAUGCCUCGAAA — lower, < 1e-05 s⁻¹
- AUAAAAGCGCCAGAACUACAGAAAUGUAGUUGACGAGGAGGACGUUUACCGAAUUUUCGGCGGAUGCCUCCAAA — lower, < 1e-05 s⁻¹
- AUAAAAGCGCCAGAACUACAGAAAUGUAGUUGACGAGGAGGAAGUUUAUCGAUUUUUCCUCGGAUGCCUCCAAA — lower, < 1e-05 s⁻¹
- AUAAAAGCGCCAGAACUACAGAAAUGUAGUUGACGAGGAGGAAGUUUAUCGAAUGUACGGCGGAGGCCUCCAAA — lower, < 1e-05 s⁻¹
- AUAAAAGCGCCAGAACUACAGAAAUGUAGUUGACGAGGAAGAGGUUUAUCGAAUUUUCGGCGGAGGCCUCUAAA — 22-fold higher, 0.0033 ± 0.00061 s⁻¹
- AUAAAAGCGCCAGAACUACAGAAAUGUAGUUGACGAGGAGGAGGUUAAUCGAAUUUUCGGCGGAGUCCUCCAAA — 17-fold higher, 0.00262 ± 0.00053 s⁻¹
- AUAAAAGCGCCAGAACUACAGAAAUGUAGUUGACGAGGACGAGGUUUAUCGAAUUUUCGGCGGGUGCCUCUAAA — 7.7-fold higher, 0.00117 ± 0.00019 s⁻¹
- AUAAAAGCGCCAGAACUACAGAAAUGUAGUUGACGAGGAGGCGUUUUAUCGAAUUUUCGGCGGAUUCCUCCAAA — lower, < 1e-05 s⁻¹
- AUAAAAGCGCCAGAACUACAGAAAUGUAGUUGACGAGGAUGAGGUUUAUCGAAUUUUCGGCUGAUGCGUCCAAA — lower, < 1e-05 s⁻¹
- AUAAAAGCGCCAGAACUACAGAAAUGUAGUUGACGAGGAGGAGUUUUAUCGAAUUUUCGGCGGAUCCCUCAAAA — lower, < 1e-05 s⁻¹
- AUAAAAGCGCCAGAACUACAGAAAUGUAGUUGACGAGGAGGAGGCUUAUCGAAUUUUCGGCGGAGGUCUCCAAA — within error, 0.000112 ± 2.2e-05 s⁻¹
- AUAAAAGCGCCAGAACUACAGAAAUGUAGUUGACGAGGAGGAGGUAUGUCGAAUUUUCGGCGGAUGCCUCCAAA — 4.1-fold lower, 3.66e-05 ± 1.3e-05 s⁻¹
- AUAAAAGCGCCAGAACUACAGAAAUGUAGUUGACGAGGAGUAGGUUUAUCGAAUUUUCGGCGGAUGCCACCAAA — 4.3-fold lower, 3.54e-05 ± 1.5e-05 s⁻¹
- AUAAAAGCGCCAGAACUACAGAAAUGUAGUUGACGAGGUGGAGGUUUAUCGAAUCUUCGGCGGGUGCCUCCAAA — 150-fold higher, 0.0229 ± 0.0073 s⁻¹
- AUAAAAGCGCCAGAACUACAGAAAUGUAGUUGACGAGGAAGAGGUUUAUCGAAUUUUAGGCGGAUGCCUCCAAA — 2-fold lower, 7.56e-05 ± 1.6e-05 s⁻¹
- AUAAAAGCGCCAGAACUACAGAAAUGUAGUUGACGAGGAGGACGUUUAUCGAAUUUUCGGCCGGUGCGUCCAAA — lower, < 1e-05 s⁻¹
- AUAAAAGCGCCAGAACUACAGAAAUGUAGUUGACGAGGAGGUGCUUUAUCGAAUUUUCGGCUGAUGCCUGCAAA — lower, < 1e-05 s⁻¹
- AUAAAAGCGCCAGAACUACAGAAAUGUAGUUGACGAGGAUGAUGUUUAUCGAAUUUUCGGCAGAUGCCUCCAAA — lower, < 1e-05 s⁻¹
- AUAAAAGCGCCAGAACUACAGAAAUGUAGUUGACGAGGAGGAGAUGUAUCGAAGUUUCGGCGGAUGCCUCCAAA — 2.5-fold higher, 0.000373 ± 0.0001 s⁻¹
- AUAAAAGCGCCAGAACUACAGAAAUGUAGUUGACGAGGAGGGGGUUUAUCGAAUCUUCGACGGAUGCCUCCAAA — 3.4-fold lower, 4.43e-05 ± 1.7e-05 s⁻¹
- AUAAAAGCGCCAGAACUACAGAAAUGUAGUUGACGAGGAGGUGGUUUAUCGAAUUUUUUGCGGAAGCCUGCAAA — lower, < 1e-05 s⁻¹
- AUAAAAGCGCCAGAACUACAGAAAUGUAGUUGACGAGGAAGAGGUUUAUCGAAUUUUCGGCGGAUGACUACAAA — within error, 0.0001 ± 2.9e-05 s⁻¹
- AUAAAAGCGCCAGAACUACAGAAAUGUAGUUGACGAGGAGGAAGUUUAUCGAAUUUCCUGCGGUUGCCUCCAAA — lower, < 1e-05 s⁻¹
- AUAAAAGCGCCAGAACUACAGAAAUGUAGUUGACGAGGAGGAGGUGUAUCGAAUUUUCGGCGGAUGCUUCUAAA — 1.8-fold lower, 8.22e-05 ± 1.3e-05 s⁻¹
- AUAAAAGCGCCAGAACUACAGAAAUGUAGUUGACGAGGAUGAGGUUUGUCGAAUUUUCGGCGGAUGCCUACAAA — 3.8-fold lower, 3.93e-05 ± 9.6e-06 s⁻¹
- AUAAAAGCGCCAGAACUACAGAAAUGUAGUUGACGAGGAGGAGGGUUAUCGAAUUUUCAGCGGAUGCCUCCAAA — 2.1-fold lower, 7.24e-05 ± 1.4e-05 s⁻¹
- AUAAAAGCGCCAGAACUACAGAAAUGUAGUUGACGAGGAGGAGGGUUAUCGAAUUUUCUGCGGAUGCCUCCAAA — 3.7-fold lower, 4.05e-05 ± 1.2e-05 s⁻¹
- AUAAAAGCGCCAGAACUACAGAAAUGUAGUUGACGAGGUGGAGAUUUAUCGAAUUUUCGGCGGAUGGCUCCAAA — 39-fold higher, 0.00582 ± 0.0014 s⁻¹
- AUAAAAGCGCCAGAACUACAGAAAUGUAGUUGACGAGGAGGACGGUUUUUGAAUUUUUGGCGGAUGUCUCCAAA — lower, < 1e-05 s⁻¹
- AUAAAAGCGCCAGAACUACAGAAAUGUAGUUGACGAGGAGUUGGUUUAUCGAAUCUUCGGCGGAUGCCUGCAAA — 1.6-fold higher, 0.000238 ± 4.7e-05 s⁻¹
- AUAAAAGCGCCAGAACUACAGAAAUGUAGUUGACGAGGAGGAGGUUGAUCGAAGUUUCGGCUGAUGCCUCCAAA — lower, < 1e-05 s⁻¹
- AUAAAAGCGCCAGAACUACAGAAAUGUAGUUGACGAGGAGGAGGUGUAUGGAAUUUUCGGCGGAUGGCUCCAAA — lower, < 1e-05 s⁻¹
- AUAAAAGCGCCAGAACUACAGAAAUGUAGUUGACGAGGAAGAGGCUUAUCGAAUUUUCGGCGGAGGGCUCCAAA — 2.3-fold higher, 0.00034 ± 0.00012 s⁻¹
- AUAAAAGCGCCAGAACUACAGAAAUGUAGUUGACGAGGAGCAGGUUUAUCGAAUUUUAGGUGGAUGCCUCCAAA — lower, < 1e-05 s⁻¹
- AUAAAAGCGCCAGAACUACAGAAAUGUAGUUGACGAGGAGGAGGUGUAUCGAAUUUUCGGGGGAUGCCUCGAAA — 3.5-fold lower, 4.27e-05 ± 1.8e-05 s⁻¹
- AUAAAAGCGCCAGAACUACAGAAAUGUAGUUGACGAGGAGUAGGUUUAUCGAAUUUUCGGCGGAUGGAUCCAAA — 2.1-fold higher, 0.000314 ± 0.00012 s⁻¹
